# Patent publication US20210338733A1 (University of Pennsylvania, published 2021)
# Target: T1, TnMUC1 in whole cell lysates of DU145 prostate cancer cells (single band of >200 kDa) (UniProt P15941 24-1255, limits assumed, Tn glycoform of MUC1 (aberrant O-glycosylation); sites not stated)
# T1 construct: mature; also called mature TnMUC1
# Assay: Western blot on whole cell lysates of the prostate cancer cell line DU145
# T1 sequence (P15941 24-1255 limits assumed): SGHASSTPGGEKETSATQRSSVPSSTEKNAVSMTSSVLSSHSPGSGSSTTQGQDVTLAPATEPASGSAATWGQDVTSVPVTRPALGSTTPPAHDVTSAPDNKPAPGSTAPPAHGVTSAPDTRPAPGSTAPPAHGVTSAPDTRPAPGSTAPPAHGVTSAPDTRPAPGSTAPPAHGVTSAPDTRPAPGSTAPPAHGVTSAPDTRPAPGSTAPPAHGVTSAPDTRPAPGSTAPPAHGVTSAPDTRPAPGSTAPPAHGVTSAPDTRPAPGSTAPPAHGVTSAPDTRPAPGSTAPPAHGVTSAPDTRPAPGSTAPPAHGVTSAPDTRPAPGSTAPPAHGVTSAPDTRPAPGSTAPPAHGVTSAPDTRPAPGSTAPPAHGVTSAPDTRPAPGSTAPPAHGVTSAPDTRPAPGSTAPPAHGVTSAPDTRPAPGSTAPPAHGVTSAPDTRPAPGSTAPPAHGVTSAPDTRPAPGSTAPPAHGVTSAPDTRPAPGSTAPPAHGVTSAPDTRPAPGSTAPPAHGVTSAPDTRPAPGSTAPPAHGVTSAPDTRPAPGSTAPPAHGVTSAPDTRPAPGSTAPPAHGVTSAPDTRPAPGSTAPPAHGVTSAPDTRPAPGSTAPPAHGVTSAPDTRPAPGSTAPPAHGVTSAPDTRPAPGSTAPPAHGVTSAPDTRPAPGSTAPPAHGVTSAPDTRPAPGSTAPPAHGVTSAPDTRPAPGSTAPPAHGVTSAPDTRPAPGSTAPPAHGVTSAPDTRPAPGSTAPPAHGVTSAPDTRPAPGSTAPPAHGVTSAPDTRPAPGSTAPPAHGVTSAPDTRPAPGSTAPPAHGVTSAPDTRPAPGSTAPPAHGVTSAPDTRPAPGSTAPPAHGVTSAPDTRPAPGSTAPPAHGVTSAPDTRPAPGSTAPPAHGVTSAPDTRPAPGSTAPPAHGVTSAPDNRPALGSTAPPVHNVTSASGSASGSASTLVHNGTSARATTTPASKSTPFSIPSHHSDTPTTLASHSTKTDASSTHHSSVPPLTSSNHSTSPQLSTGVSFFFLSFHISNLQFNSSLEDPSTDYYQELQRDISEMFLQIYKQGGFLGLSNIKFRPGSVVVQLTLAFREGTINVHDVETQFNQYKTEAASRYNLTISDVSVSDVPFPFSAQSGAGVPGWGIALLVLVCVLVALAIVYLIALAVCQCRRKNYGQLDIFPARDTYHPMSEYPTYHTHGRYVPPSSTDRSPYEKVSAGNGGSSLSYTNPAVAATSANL
binder,measurement,value
"Anti-TnMUC1 murine monoclonal antibody clone 5E5 (antibody, V domains shown, also called 5E5 mAb; mAb 5E5) VH: QVQLQQSDAELVKPGSSVKISCKASGYTFTDHAIHWVKQKPEQGLEWIGHFSPGNTDIKYNDKFKGKATLTVDRSSSTAYMQLNSLTSEDSAVYFCKTSTFFFDYWGQGTTLTVSS VL: ELVMTQSPSSLTVTAGEKVTMICKSSQSLLNSGDQKNYLTWYQQKPGQPPKLLIFWASTRESGVPDRFTGSGSGTDFTLTISSVQAEDLAVYYCQNDYSYPLTFGAGTKLELK",binding result,binds
